{
  "source": "patent US8034904B2",
  "about": "“Anti-IGF-I receptor antibody” (Immunogen Inc., priority 2002, dated 2011)",
  "molecules": {"B1": {"name": "EM164: murine anti-IGF-I receptor monoclonal antibody, IgG1 with kappa light chain, hybridoma ATCC PTA-4457; heavy SEQ ID NO:7, light SEQ ID NO:8 (antibody)", "heavy": "QVQLQQSGAELVKPGASVKLSCKASGYTFTSYWMHWVKQRPGQGLEWIGEINPSNGRTNYNEKFKRKATLTVDKSSSTAYMQLSSLTSEDSAVYYFARGRPDYYGSSKWYFDVWGAGTTVTVSS", "light": "DVLMTQTPLSLPVSLGDQASISCRSSQSIVHSNVNTYLEWYLQKPGQSPKLLIYKVSNRFSGVPDRFSGSGSGTDFTLRISRVEAEDLGIYYCFQGSHVPPTFGGGTKLEIKR", "modifications": "antibody heavy chain; antibody light chain"}},
  "key": {"human IGF-I receptor": {"system": "human IGF-I receptor", "experiment": "FACS binding to cells overexpressing human IGF-I receptor", "conditions": "EM164 50-100 nM", "experimental": "Incubation of EM164 antibody (50-100 nM) in 100 μL cold FACS buffer (1 mg/mL BSA in Dulbecco's MEM medium) was performed using cells overexpressing IGF-I receptor and using cells overexpressing insulin receptor (2×10^5 cells/mL) in a round-bottom 96-well plate for 1 h. The cells were pelleted by centrifugation and washed with cold FACS buffer by gentle flicking, followed by incubation with goat-anti-mouse-IgG-antibody-FITC conjugate (100 μL; 10 μg/mL in FACS buffer) on ice for 1 h. The cells were pelleted, washed, and resuspended in 120 μL of 1% formaldehyde solution in PBS. The plate was analyzed using a FACSCalibur reader (BD Biosciences)."}, "[1]": {"system": "IGF-I receptor from cos-7 cells", "experiment": "Immunoprecipitation of IGF-I receptor from cos-7 cells", "format": "binding", "conditions": "cos-7 cells (African green monkey)", "text": "(§1) A Western blot of the EM164 antibody immunoprecipitate was detected using a rabbit polyclonal anti-IGF-I receptor beta chain (C-terminus) antibody (Santa Cruz Biotechnology) and a goat-anti-rabbit-IgG-antibody-horseradish peroxidase conjugate, followed by washes and enhanced chemiluminescence (ECL) detection."}, "[2]": {"system": "IGF-I receptor of CHO cells", "experiment": "Immunoprecipitation of IGF-I receptor from CHO cells", "format": "binding", "conditions": "CHO cells (Chinese hamster)", "text": "as §1"}, "[3]": {"system": "IGF-I receptor of goat fibroblast cells", "experiment": "Immunoprecipitation of IGF-I receptor from goat fibroblast cells", "format": "binding", "text": "as §1"}, "[4]": {"target": "T1, IGF-I receptor on MCF-7 cells (Homo sapiens, UniProt P08069)", "T1 construct": "human breast cancer MCF-7 cells, which expressed IGF-I receptor; endogenous in cells; host or cells: MCF-7 human breast cancer cells", "experiment": "IGF-I displacement assay in MCF-7 cells", "format": "cell-based", "experimental": "(or at 4° C.) for 1 to 2 h. […] (or at 4° C.) for 30 min to 4 h. Cells were then washed with PBS and lysed in lysis buffer containing 1% NP-40 at 4° C."}, "IGF-I receptor [5]": {"target": "T2, IGF-I receptor (Homo sapiens, UniProt P08069)", "T2 construct": "human breast cancer MCF-7 cells, which expressed IGF-I receptor; endogenous in cells; host or cells: MCF-7 human breast cancer cells", "experiment": "Downregulation of IGF-I receptor in MCF-7 cells (Western blot)", "format": "cell-based", "experimental": "Therefore, the inhibition of binding of IGF-I and the displacement of bound IGF-I by EM164 antibody at both 4° C. and 37° C. in these short-term experiments may not be explained by the down-regulation of the receptor due to the binding of the EM164 antibody. The mechanism for the potent inhibition of the binding of IGF-I to IGF-I receptor and for the displacement of the pre-bound IGF-I by EM164 antibody is likely to be competition for binding, either through sharing of the binding site or through steric occlusion or through allosteric effects."}, "IGF-I receptor [6]": {"target": "T2, IGF-I receptor", "experiment": "IGF-I-stimulated autophosphorylation of IGF-I receptor in MCF-7 cells (ELISA)", "format": "cell-based", "conditions": "20 μg/mL antibody 3 h; 50 ng/mL IGF-I 20 min", "experimental": "In FIG. 4, the MCF-7 cells were grown in a 12-well plate in regular medium for 3 days, and were then treated with 20 μg/mL EM164 antibody (or anti-B4 control antibody) in serum-free medium for 3 h, followed by stimulation with 50 ng/mL IGF-I for 20 min at 37° C. The cells were then lysed in ice-cold lysis buffer containing protease and phosphatase inhibitors (50 mM HEPES buffer, pH 7.4, 1% NP-40, 1 mM sodium orthovanadate, 100 mM sodium fluoride, 10 mM sodium pyrophosphate, 2.5 mM EDTA, 10 μM leupeptin, 5 μM pepstatin, 1 mM PMSF, 5 mM benzamidine, and 5 μg/mL aprotinin). An ELISA plate was pre-coated with anti-IGF-I receptor beta chain C-terminus monoclonal antibody TC123 and was incubated with the lysate samples for 5 h at ambient temperature to capture IGF-I receptor. The wells containing the captured IGF-I receptor were then washed and incubated with biotinylated anti-phosphotyrosine antibody (PY20; 0.25 μg/mL; BD Transduction Laboratories) for 30 min, followed by washes and incubation with streptavidin-horseradish peroxidase conjugate (0.8 μg/mL) for 30 min. The wells were washed and detected with ABTS/H2O2 substrate."}, "HT-3 (cervical) cells": {"system": "HT-3 (cervical) cells", "experiment": "Growth and survival of HT-3 cells (MTT assay)", "format": "cell-based, human", "conditions": "5-10 μg/mL EM164, 10 ng/mL IGF-I", "experimental": "Several human tumor cell lines were tested in serum-free conditions for their growth and survival response to IGF-I. These cell lines were treated with EM164 antibody in the presence of IGF-I, IGF-II, or serum, and their growth and survival responses were measured using an MTT assay after 2-4 days. Approximately 1500 cells were plated in a 96-well plate in regular medium with serum, which was replaced with serum-free medium the following day (either serum-free RPMI medium supplemented with transferrin and BSA, or phenol-red free medium as specified by Dufourny, B. et al., 1997, J. Biol. Chem., 272, 31163-31171). After one day of growth in serum-free medium, the cells were incubated with about 75 μL of 10 μg/mL antibody for 30 min.-3 h, followed by the addition of 25 μL of IGF-I (or IGF-II or serum) solution to obtain a final concentration of 10 ng/mL IGF-I, or 20 ng/mL IGF-II, or 0.04-10% serum. In some experiments, the cells were stimulated first with IGF-I for 15 min before the addition of EM164 antibody, or both IGF-I and EM164 antibody were added together. The cells were then allowed to grow for another 2-3 days. […] The medium was then removed and replaced by 100 μL DMSO, mixed, and the absorbance of the plate was measured at 545 nm."}, "HT-29 colon cancer cells": {"system": "HT-29 colon cancer cells", "experiment": "Growth and survival of HT-29 cells (MTT assay, colony formation)", "format": "cell-based, human", "experimental": "Several human tumor cell lines were tested in serum-free conditions for their growth and survival response to IGF-I. These cell lines were treated with EM164 antibody in the presence of IGF-I, IGF-II, or serum, and their growth and survival responses were measured using an MTT assay after 2-4 days. Approximately 1500 cells were plated in a 96-well plate in regular medium with serum, which was replaced with serum-free medium the following day (either serum-free RPMI medium supplemented with transferrin and BSA, or phenol-red free medium as specified by Dufourny, B. et al., 1997, J. Biol. Chem., 272, 31163-31171). After one day of growth in serum-free medium, the cells were incubated with about 75 μL of 10 μg/mL antibody for 30 min.-3 h, followed by the addition of 25 μL of IGF-I (or IGF-II or serum) solution to obtain a final concentration of 10 ng/mL IGF-I, or 20 ng/mL IGF-II, or 0.04-10% serum. In some experiments, the cells were stimulated first with IGF-I for 15 min before the addition of EM164 antibody, or both IGF-I and EM164 antibody were added together. The cells were then allowed to grow for another 2-3 days. A solution of MTT (3-(4,5)-dimethylthiazol-2-yl)-2,5-diphenyltetrazolium bromide; 25 μL of a 5 mg/mL solution in PBS) was then added and the cells were returned to the incubator for 2-3 h. The medium was then removed and replaced by 100 μL DMSO, mixed, and the absorbance of the plate was measured at 545 nm."}, "MCF-7 cells": {"system": "MCF-7 cells", "experiment": "Growth inhibition of MCF-7 cells by counting cells", "format": "cell-based, human", "conditions": "10 μg/mL EM164", "experimental": "The growth inhibition of MCF-7 cells by EM164 antibody was measured by counting cells. Thus, in a 12-well plate, about 7500 cells were plated in RPMI medium with 10% FBS, in the presence or absence of 10 μg/mL EM164 antibody. After 5 days of growth, the cell count for the untreated control sample was 20.5×10^4 cells, in contrast to a cell count of only 1.7×10^4 cells for the EM164 antibody-treated sample."}, "[7]": {"system": "A-673 human rhabdomyosarcoma/Ewing's sarcoma xenografts", "experiment": "A-673 xenograft in mice", "conditions": "mouse, in vivo"}},
  "data": [
    {"molecule": "B1", "values": [
      {"measurement": "fluorescence shift (FACS)", "setting": "human IGF-I receptor", "result": "strong fluorescence shift"},
      {"measurement": "binding to IGF-I receptor (immunoprecipitation)", "setting": "[1]", "result": "also bound"},
      {"measurement": "binding to IGF-I receptor (immunoprecipitation)", "setting": "[2]", "result": "did not bind"},
      {"measurement": "binding to IGF-I receptor (immunoprecipitation)", "setting": "[3]", "result": "did not bind"},
      {"measurement": "displacement of pre-bound biotinylated IGF-I", "setting": "[4]; 4° C., 2 h", "result": "about 50%"},
      {"measurement": "displacement of pre-bound biotinylated IGF-I", "setting": "[4]; 37° C., within 30 min", "result": 90, "unit": "%"},
      {"measurement": "displacement of pre-bound biotinylated IGF-I", "setting": "[4]; 37° C., within 4 h", "result": "~100", "unit": "%"},
      {"measurement": "downregulation of the IGF-I receptor", "setting": "IGF-I receptor [5]; 4° C. for 2 h (or 37° C. for 30 min)", "result": "did not result in a significant downregulation"},
      {"measurement": "downregulation of the IGF-I receptor", "setting": "IGF-I receptor [5]; 37° C. for 2 h", "result": 25, "unit": "%"},
      {"measurement": "inhibition of the IGF-I stimulated autophosphorylation of IGF-I receptor", "setting": "IGF-I receptor [6]", "result": "complete inhibition"},
      {"measurement": "Inhibition by EM164 antibody of IGF-I-stimulated growth in serum-free medium", "setting": "HT-3 (cervical) cells", "result": "70-90%"},
      {"measurement": "colony size of HT29 colon cancer cells", "setting": "HT-29 colon cancer cells", "result": "greatly reduced"},
      {"measurement": "Inhibition by EM164 antibody of IGF-I-stimulated growth in serum-free medium", "setting": "HT-29 colon cancer cells; HT-29, 5-10 μg/mL EM164, 10 ng/mL IGF-I", "result": 60, "unit": "%"},
      {"measurement": "% Inhibition by EM164 antibody of Growth/survival of cells in 1.25-10% serum", "setting": "HT-29 colon cancer cells; HT-29, 5-10 μg/mL EM164, MTT or colony formation assay", "result": "Yes"},
      {"measurement": "cell count after 5 days of growth", "setting": "MCF-7 cells; RPMI with 10% FBS, about 7500 cells plated, untreated control 20.5×10^4 cells", "result": "1.7×10^4 cells"},
      {"measurement": "inhibition of growth of MCF-7 cells", "setting": "MCF-7 cells; in 5 days, 10% FBS", "result": "about 12 fold"},
      {"measurement": "growth of established A-673 xenografts", "setting": "[7]", "result": "significant growth delay"}
    ]}
  ]
}
